Measured values as given in US20110065645A1, “Compositions and Methods for Modulating Neuron Degeneration and Neuron Guidance” (The Regents of the University of California, priority 2009, published 2011).
One block for each molecule: values may come before it. Peptide text beside a SMILES is read from it. * marks the point of attachment. Cbz = O=C(OCc1ccccc1)*

Columns and labels:
Format in all cases: cell-based
[1] = biological target: T1, Fzd3 (Mus musculus, UniProt Q61086); experiment: Surface biotinylation and avidin immunoprecipitation of Fzd3 in HEK293T cells; conditions: HEK293T co-transfection, Vgl2 value in the presence of Dvl1
T1 construct: expressed in transfected cells; host or cells: HEK293T
T1 sequence (Q61086 23-666): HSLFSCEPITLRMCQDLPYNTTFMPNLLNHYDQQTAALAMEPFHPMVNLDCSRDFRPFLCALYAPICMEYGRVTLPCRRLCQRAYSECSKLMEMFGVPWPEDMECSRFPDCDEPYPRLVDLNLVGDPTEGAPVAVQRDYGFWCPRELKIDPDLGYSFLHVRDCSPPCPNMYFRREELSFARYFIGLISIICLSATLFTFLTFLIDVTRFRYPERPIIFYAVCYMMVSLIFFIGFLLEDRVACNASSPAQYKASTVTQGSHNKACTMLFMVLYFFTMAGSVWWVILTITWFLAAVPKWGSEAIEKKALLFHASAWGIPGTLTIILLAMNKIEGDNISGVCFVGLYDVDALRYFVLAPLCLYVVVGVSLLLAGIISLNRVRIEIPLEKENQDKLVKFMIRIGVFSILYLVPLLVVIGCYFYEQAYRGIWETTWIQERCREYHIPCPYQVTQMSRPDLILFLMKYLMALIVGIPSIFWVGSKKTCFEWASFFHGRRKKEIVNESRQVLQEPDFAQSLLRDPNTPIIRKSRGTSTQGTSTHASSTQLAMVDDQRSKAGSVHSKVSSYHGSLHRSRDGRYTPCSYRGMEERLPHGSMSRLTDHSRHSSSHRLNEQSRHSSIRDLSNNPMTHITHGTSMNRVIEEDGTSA
Excerpt: Dvl and Vgl have antagonistic functions on Fzd3 phosphorylation. […] We transfected Fzd3-mCherry in HEK293T cells then surface biotinylated and immunoprecipitated (IP) the surface molecules with strepavidin-conjugated beads to obtain membrane-localized proteins. […] We tested whether these two Fzd3 bands represent phosphorylation states of the Frizzled3 protein, one being phosphorylated/hyperphosphorylated Fzd3 (p-Fzd3) and the other non-phosphorylated Fzd3. […] Phosphorylation of Fzds has been shown previously in Xenopus oocytes
It has been proposed that Frizzled internalization is necessary for PCP signaling and phenotypes (Gagliardi et al., 2008; Yu et al., 2007). However, it has never been directly tested whether the cell surface level of Fzd, the Wnt-PCP receptor, changes upon Wnt addition. By using our surface biotinylation and immunoprecipitation with avidin, we show here, 15 minutes after Wnt addition, cell surface level of Fzd3-EGFP is diminished (FIG. 18C, Avidin IP, lane 3 anti-EGFP IB). […] This Fzd3 receptor oscillation from and to the membrane appeared to be a Wnt-Fzd specific effect because a non-Wnt binding receptor, such as the Insulin receptor stayed the same throughout the Wnt stimulation (FIG. 18C, Avidin IP, anti-Insulin Rβ IB). The Wnt-dependent Fzd3 oscillation is quantified in FIG. 18D (cross symboled line). […] In addition, PCP components appeared to effect this Wnt dependent oscillation of Fzd3 to and from the membrane. When Dvl1 is over expressed with Fzd3, we found within 30 minutes Fzd3 is unable to be internalized (FIG. 25B, lanes 5-7 and line). However, upon the introduction of Vangl2 into the transfection mix, Fzd3 oscillation is resumed (FIG. 25B, lanes 8-10 and circle symboled line).
Surface biotinylation and immunopreciptiation. 30 hours after transfection with the indicated constructs into HEK293T cells (FuGene, Roche), followed by 8-hour incubation in Optimem and subsequent bath application of recombinant Wnt5a (R&D Systems), surface proteins were subsequently labeled on ice with 1 mg/ml of Sulfo-NHS-LC-Biotin reagent (Pierce). The cell lysates were collect over a period of 30 minutes on ice in the following lysis buffer: 20 mM Tris pH7.6, 150 mM NaCl, 1% Triton, 0.1% SDS, 2.5 mM EDTA, 2.5 mM EGTA, protease Inhibitors (Roche). For the membrane immunoprecipitation, 600 ug of protein extracts were incubated overnight and retrieved by NeutrAvidin-coated Agarose beads (Pierce), the bound fraction was boiled and loaded on SDS-PAGE gel and analyzed by western blot analysis. To visualize the input amount 20 ug of total lysate was loaded, and for the Avidin IPs the total amount was loaded for western blot analysis. The following primary antibodies were used for the immunoblots: α-Frizzled3 (Wang et al., 2006), α-Vangl2 (Santa Cruz), α-mCherry/DsRed (Clontech), α-Jun (Cell Signaling), α-phospho-Jun (Cell Signaling), α-JNK (Cell Signaling), α-phospho-JNK (Cell Signaling), α-Flag (Sigma), α-GAPDH (Chemicon), α-Insulin Rβ (Santa Cruz).

[2] = system: cortical neurons; experiment: Cortical neuron death/survival assay under PKCζ inhibition (Tuj1, TUNEL, DAPI staining)
Excerpt: 1. PKCζ is required for survival of cortical neurons. E15.5 cortical neurons were dissociated and cultured for 2 days in the presence of various concentrations of a cell membrane penetrating myristoylated peptide derived in the pseudosubstrate domain of PKC (FIGS. 12A-12D). This peptide is a specific inhibitor of PKCζ.
2. Axon degeneration procedes cell body death when PKC is inhibited. We examined the timing of axon degeneration and cell body death. […] The death induced by PKCζ inhibition is much faster than Aβ peptide induced neuronal death (FIG. 12D), probably because the PKCζ is an essential kinase and peptide inhibition causes instant death, whereas Aβ has to bind to cell surface receptor and trigger a signaling cascade to cause death, which requires a longer time.
3. Wnts are trophic factors for cortical neurons. […] Nuclear shrinkage (pyknosis) is a hallmark of neuronal cell death. Using DAPI staining, we can visualize the cell nuclei (FIG. 14B). […] Initial cortical axons and dendrite form and grow but axons start to disintegrate at E18.5 (FIG. 14D, from Wang et al 2006),^(13) (FIGS. 12F, 12K). Based on our preliminary results, we propose that Wnts are not only axon guidance molecules but also regulate neuronal survival and axon degeneration acting via PKC (FIG. 15).
3. Survival and cell death assays for screening of monoclonal antibodies and small compounds. We use the same cell death/survival assay as described in FIGS. 12A-14D and use microtubule staining to analyze the integrity of microtubules, DAPI stain to measure the size of cell nuclei and TUNEL staining to assay cell death. Microtubule disassembly is quantified by staining intensity of Tuj1 and Tau antibodies. The size of cell nuclei is binned into difference sizes and the distribution of the nuclei size is used as quantification of pyknosis (FIG. 14C).

[3] = system: β-catenin; experiment: β-catenin immunostaining in commissural axon growth cones; conditions: bath application; LiCl 2 mM
Excerpt: To understand how atypical PKC/Par pathway regulates axon guidance, we set out to determine the subcellular localization of aPKC, their substrates and downstream cellular effectors. […] Thus, our high-resolution confocal imaging detects a tendency of β-catenin being concentrated to one side of the growth cone (FIG. 9A). It is possible that there is low level of Wnt proteins in the culture (many neurons express Wnts). […] Therefore, it is also possible that intrinsic aPKC signaling can create chirality within the growth cone with out extrinsic signals. Such intrinsic polarity may then robustly regulate cellular morphology upon directional instructions from the environment such as a Wnt gradient. It is well known that GSK3β phosphorylates β-catenin, which then leads to proteosome-mediated degradation of β-catenin. And it is also known that GSK3β is phosphorylated and inhibited by PKCζ^(1,2). Therefore, inhibiting GSK3β or the proteosome activity generally should increase β-catenin level throughout the growth cone, canceling the asymmetry. […] We are now testing the hypothesis that Wnt proteins may locally activate PKCζ, which then inhibits GSK3β and locally stabilizes β-catenin, which is part of the asymmetric cellular mechanism leading to directional choice of a growth cone. We examine the localization of β-catenin in post-crossing commissural axon growth cones in the “post-crossing” assay and “open-book” assays.

Fzd3 at the membrane relative to Fzd3-mCherry transfected alone [1]: 2 fold
Molecule: Vgl2: Vang Gogh Like protein 2 expressed by transfection in HEK293T cells

Molecule: [Cl-].[Li+] [LiCl, reference compound]
pyknosis (nuclear shrinkage, DAPI staining, Image J) ([2]; neuronal death induced by PKCζ inhibition): partially blocked | cell death induced by PKC inhibition ([2]; pretreatment before pseudosubstrate peptide): block/reduce the cell death | β-catenin level and asymmetry in the growth cone [3]: elevated the level of β-catenin throughout the growth cone

Molecule: CC(C)C[C@@H](C=O)NC(=O)[C@H](CC(C)C)NC(=O)[C@H](CC(C)C)NC(=O)OCc1ccccc1 [MG132, reference compound] (Cbz-Leu-Leu-Leu-aldehyde)
β-catenin level and asymmetry in the growth cone [3]: elevated the level of β-catenin throughout the growth cone

Fzd3 at the membrane relative to Fzd3-mCherry transfected alone [1]: 3 fold | Fzd3 at the membrane relative to Fzd3-mCherry transfected alone ([1]; listed as Dvl): approximately 3 fold
B1: Dvl1: Dvl1-EGFP expressed by transfection in HEK293T cells (protein)
chain: MAETKIIYHMDEEETPYLVKLPVAPERVTLADFKNVLSNRPVHAYKFFFKSMDQDFGVVKEEIFDDNAKLPCFNGRVVSWLVLAEGAHSDAGSQGTDSHTDLPPPLERTGGIGDSRPPSFHPNVASSRDGMDNETGTESMVSHRRERARRRNRDEAARTNGHPRGDRRRDLGLPPDSASTVLSSELESSSFIDSDEEDNTSRLSSSTEQSTSSRLVRKHKCRRRKQRLRQTDRASSFSSITDSTMSLNIITVTLNMERHHFLGISIVGQSNDRGDGGIYIGSIMKGGAVAADGRIEPGDMLLQVNDVNFENMSNDDAVRVLREIVSQTGPISLTVAKCWDPTPRSYFTIPRADPVRPIDPAAWLSHTAALTGALPRYGTSPCSSAITRTSSSSLTSSVPGAPQLEEAPLTVKSDMSAIVRVMQLPDSGLEIRDRMWLKITIANAVIGADVVDWLYTHVEGFKERREARKYASSMLKHGFLRHTVNKITFSEQCYYVFGDLCSNLASLNLNSGSSGASDQDTLAPLPHPSVPWPLGQGYPYQYPGPPPCFPPAYQDPGFSCGSGSAGSQQSEGSKSSGSTRSSHRTPGREERRATGAGGSGSESDHTVPSGSGSTGWWERPVSQLSRGSSPRSQASAVAPGLPPLHPLTKAYAVVGGPPGGPPVRELAAVPPELTGSRQSFQKAMGNPCEFFVDIM
modifications: left off: large carriers
notes: Dvl1-EGFP expressed by transfection in HEK293T cells

B2: sFPR2: a Wnt inhibitor, secreted Frizzled-related protein (protein, UniProt Q96HF1 25-295, looked up)
Secreted frizzled-related …: LFLFGQPDFSYKRSNCKPIPANLQLCHGIEYQNMRLPNLLGHETMKEVLEQAGAWIPLVMKQCHPDTKKFLCSLFAPVCLDDLDETIQPCHSLCVQVKDRCAPVMSAFGFPWPDMLECDRFPQDNDLCIPLASSDHLLPATEEAPKVCEACKNKNDDDNDIMETLCKNDFALKIKVKEITYINRDTKIILETKSKTIYKLNGVSERDLKKSVLWLKDSLQCTCEEMNDINAPYLVMGQKQGGELVITSVKRWQKGQREFKRISRSIRKLQC
β-catenin level and asymmetry in the growth cone [3]: eliminated asymmetric distribution of β-catenin
